The record followed here is patent US20210017279A1 (NANJING LEGEND BIOTECH, published 2021).

Where “and” joins values, the source holds several entries; their conditions need not be identical. Equal entries are not always repeated. Where two headings read alike, the source gives them in different places.

By Kd is commonly meant a measure of binding affinity in units of concentration. Read a low Kd as higher affinity. What is called EC50 is the concentration that produces a half-maximal response.

In assay [1] the target is T1, Cynomolgus LAG-3-Fc (cynomolgus).
T1 construct: Bought recombinant protein; also called cynomolgus LAG-3 protein (Acrobiosystem, 2187-71HF1-DZ)
Briefly: SPR (Biacore T200); antibody captured on chip, LAG-3 injected.
Method: BIACORE™ T200 instrument was utilized to determine the affinity constant (KD) of each anti-LAG-3 antibody (sdAb-Fc fusion protein or mAb format) by SPR. Briefly, anti-LAG-3 antibody was immobilized on the sensor chip through capture antibody (Jackson ImmunoResearch Cat. No.115-005-071) at an appropriate density. […] The data of dissociation rate constant (koff) and association rate constant (kₘ) were obtained using BIACORE™ T200 evaluation software and the affinity constant (KD) were calculated from the ratio of koff to kₘ.

The target of assay [2] is LAG-3 on Thaw-and-Use LAG-3 Effector cells. The experiment in a line: cell-based or functional assay.
Assay [3] shares this target. The experiment in a line: cell-based or functional assay. The source holds these as a separate data set.
Assay [4] has as its target T1, Cynomolgus LAG-3-Fc. Briefly: SPR (Biacore T200); cynomolgus LAG-3 immobilized, antibody injected. A general note: In SPR one partner is held on a chip, and binding of the other changes the refractive index at the surface.
From the text: BIACORE™ T200 instrument was utilized to determine affinity constant (KD) of each anti-LAG-3 antibody (sdAb-Fc fusion protein or mAb format) by SPR. Briefly, for measuring the affinity against human LAG-3, anti-LAG-3 antibody was immobilized on the sensor chip through capture antibody (Jackson ImmunoResearch Cat.No.115-005-071) at an appropriate density. […] The data of dissociation rate constant (koff) and association rate constant (k₀n) were obtained using BIACORE™ T200 evaluation software and the affinity constant (KD) were calculated from the ratio of koff to kₒₙ.
The target in assay [5] is T2, cynomolgus LAG-3 expressed on CHO-K1 cells (cynomolgus).
T2 construct: whole, on cells
The experiment in a line: flow cytometry on CHO-K1 cells expressing cynomolgus LAG-3. Here is the method: To determine cell binding EC₅₀, CHO-K1 cells expressing human or cynomolgus LAG-3 were harvested and incubated with anti-LAG-3 sdAb-Fc fusion proteins at gradient concentrations, followed by fluorophore-labeled secondary antibodies against human Fc. […] The samples were then analyzed with flow cytometry. The binding and blocking curves were shown in FIG. 4 and FIG. 5, respectively.
On the technique in general: Flow cytometry measures light scatter and fluorescence of single cells or particles in a stream.

For assay [6], the target named is T3, PD-1 expressed on CHO cells (UniProt Q15116 25-288, limits assumed).
T3 construct: whole, on cells; also called CHO-PD-1 cells
Briefly: flow cytometry competition; blocks PD-L1 binding to CHO-PD-1 cells; Experiment 1.

The target in a further assay is Human PD-1 (human, UniProt Q15116 25-167, limits assumed). The experiment in a line: SPR (Biacore T200), as in Example 3; Experiment 1.
The next assay addresses T4, Human LAG-3-His (human, UniProt P18627 29-450).
T4 construct: Bought recombinant protein; also called Human LAG-3 protein (Acrobiosystem, 772-6BGF2-D5); not shown: His tag
T4 sequence: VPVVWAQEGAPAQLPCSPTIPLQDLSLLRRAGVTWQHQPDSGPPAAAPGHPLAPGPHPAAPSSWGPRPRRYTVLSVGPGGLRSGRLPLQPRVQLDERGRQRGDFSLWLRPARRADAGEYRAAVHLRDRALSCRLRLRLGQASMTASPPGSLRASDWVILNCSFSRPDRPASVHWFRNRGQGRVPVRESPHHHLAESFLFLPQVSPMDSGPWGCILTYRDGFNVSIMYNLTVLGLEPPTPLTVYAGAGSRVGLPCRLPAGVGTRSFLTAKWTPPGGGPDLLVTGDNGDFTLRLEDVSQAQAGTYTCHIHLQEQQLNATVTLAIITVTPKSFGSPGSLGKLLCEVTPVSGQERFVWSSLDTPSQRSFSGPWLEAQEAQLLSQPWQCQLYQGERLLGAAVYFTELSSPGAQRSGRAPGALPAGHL
Briefly: SPR (Biacore T200), as in Example 3; Experiment 1.

Assay [7] addresses T3, PD-1 expressed on CHO cells. Briefly: flow cytometry on CHO cells expressing PD-1; Experiment 1.
The target of assay [8] is PD-1 in the PD-1 cell based reporter assay. The experiment in a line: cell-based or functional assay.
A further assay has as its target T5, LAG-3-Fc (human, UniProt P18627 29-450, biotinylated (in the blocking assays)).
T5 construct: Recombinant LAG-3-Fc (Acrobiosystems / R&D Systems); also called biotinylated LAG-3-Fc protein; not shown: Fc part
T5 sequence: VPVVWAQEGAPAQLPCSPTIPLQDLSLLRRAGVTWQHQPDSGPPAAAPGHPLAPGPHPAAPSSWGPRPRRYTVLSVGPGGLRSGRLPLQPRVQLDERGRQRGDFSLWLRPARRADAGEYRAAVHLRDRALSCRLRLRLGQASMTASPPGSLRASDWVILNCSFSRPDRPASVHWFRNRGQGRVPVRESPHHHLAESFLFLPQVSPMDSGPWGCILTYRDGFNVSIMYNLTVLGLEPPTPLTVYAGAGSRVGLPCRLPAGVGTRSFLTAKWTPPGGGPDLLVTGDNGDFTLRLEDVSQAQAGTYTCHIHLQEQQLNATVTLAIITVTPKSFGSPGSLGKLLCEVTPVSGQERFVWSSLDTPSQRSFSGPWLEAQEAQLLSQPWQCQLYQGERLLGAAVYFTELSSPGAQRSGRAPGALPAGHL
Briefly: flow cytometry competition; blocks LAG-3-Fc binding to MHC II on A375 cells; Experiment 1.

For assay [9], the target named is T6, human LAG-3 expressed on CHO-K1 cells (human, UniProt P18627 29-525).
T6 construct: also called CHO-huLAG-3 cells; LAG-3 expressed on CHO cells
T6 sequence: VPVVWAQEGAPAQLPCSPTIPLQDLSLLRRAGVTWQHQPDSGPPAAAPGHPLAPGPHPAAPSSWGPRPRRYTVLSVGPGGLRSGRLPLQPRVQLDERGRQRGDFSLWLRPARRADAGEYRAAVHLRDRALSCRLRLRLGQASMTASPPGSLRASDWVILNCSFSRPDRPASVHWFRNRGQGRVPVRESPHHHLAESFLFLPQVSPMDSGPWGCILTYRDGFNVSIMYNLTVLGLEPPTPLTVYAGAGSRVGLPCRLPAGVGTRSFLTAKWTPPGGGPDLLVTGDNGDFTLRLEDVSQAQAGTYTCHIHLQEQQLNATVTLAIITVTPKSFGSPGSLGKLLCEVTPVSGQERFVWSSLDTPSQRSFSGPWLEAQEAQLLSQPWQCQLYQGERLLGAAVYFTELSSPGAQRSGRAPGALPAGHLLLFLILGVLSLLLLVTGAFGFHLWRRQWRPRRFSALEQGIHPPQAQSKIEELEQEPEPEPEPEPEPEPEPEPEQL
The experiment in a line: flow cytometry on CHO cells expressing LAG-3; Experiment 1.

T3 sequence (Q15116 25-288 limits assumed): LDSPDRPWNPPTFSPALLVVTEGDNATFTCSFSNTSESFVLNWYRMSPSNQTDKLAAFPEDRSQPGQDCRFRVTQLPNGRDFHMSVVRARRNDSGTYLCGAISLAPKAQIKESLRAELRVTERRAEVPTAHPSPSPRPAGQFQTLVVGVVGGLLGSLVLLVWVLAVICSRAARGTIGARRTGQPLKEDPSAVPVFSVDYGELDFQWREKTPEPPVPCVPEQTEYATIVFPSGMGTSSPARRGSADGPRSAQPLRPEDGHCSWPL
Sequence of Human PD-1 (Q15116 25-167 limits assumed): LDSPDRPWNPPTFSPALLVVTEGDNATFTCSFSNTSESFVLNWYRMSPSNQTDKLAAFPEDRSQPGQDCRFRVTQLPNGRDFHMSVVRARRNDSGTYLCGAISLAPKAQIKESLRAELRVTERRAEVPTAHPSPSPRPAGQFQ

B1: BMS-986016 (antibody, human IgG4 S228P, kappa, V domains shown)
VH: QVQLQQWGAGLLKPSETLSLTCAVYGGSFSDYYWNWIRQPPGKGLEWIGEINHRGSTNSNPSLKSRVTLSLDTSKNQFSLKLRSVTAADTAVYYCAFGYSDYEYNWFDPWGQGTLVTVSS
VL: EIVLTQSPATLSLSPGERATLSCRASQSISSYLAWYQQKPGQAPRLLIYDASNRATGIPARFSGSGSGTDFTLTISSLEPEDFAVYYCQQRSNWPLTFGQGTNLEIKR
notes: also called benchmark antibody; positive control anti-LAG-3 monoclonal antibody (Bristol-Myers Squibb)
As for B1, the Kd was determined as 1.7 nM in the assay with Cynomolgus LAG-3-Fc [1] and 1000 nM with Cynomolgus LAG-3-Fc [4]. Moreover, the “LAG-3 blockade reporter assay EC50” value is 3.82 nM in [2]; 3.29 nM and 3.82 nM in [3]. Besides, the “LAG-3 blockade reporter assay Signal span (% activation)” value in assay [2] is 76.8 % activation. Besides, in assay [5], the EC50 is 17.6 nM.

B2: BLP-1 (bispecific antibody, human IgG4 S228P, kappa)
heavy: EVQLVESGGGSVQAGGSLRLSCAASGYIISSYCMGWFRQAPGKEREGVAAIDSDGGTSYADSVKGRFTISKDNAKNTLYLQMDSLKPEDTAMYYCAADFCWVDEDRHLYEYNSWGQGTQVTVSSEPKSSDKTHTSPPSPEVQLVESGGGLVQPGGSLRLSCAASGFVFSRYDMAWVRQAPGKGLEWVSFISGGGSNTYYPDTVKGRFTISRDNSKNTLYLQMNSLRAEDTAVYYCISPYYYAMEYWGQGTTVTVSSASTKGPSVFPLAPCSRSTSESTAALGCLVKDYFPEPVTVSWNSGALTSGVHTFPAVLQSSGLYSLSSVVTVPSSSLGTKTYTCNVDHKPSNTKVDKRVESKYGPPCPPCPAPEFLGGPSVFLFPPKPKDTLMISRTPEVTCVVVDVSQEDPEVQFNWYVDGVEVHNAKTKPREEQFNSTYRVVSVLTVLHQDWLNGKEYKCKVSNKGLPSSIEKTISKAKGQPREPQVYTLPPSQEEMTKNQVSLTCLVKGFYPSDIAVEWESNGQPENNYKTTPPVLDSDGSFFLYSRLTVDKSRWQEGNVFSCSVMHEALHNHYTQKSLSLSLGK
light: DIQMTQSPSSVSASVGDRVTITCKASQDVDTAVAWYQQKPGKAPKLLIYWASTRHTGVPSRFSGSGSGTDFTLTISSLQPEDFATYYCQQYSTFPWTFGGGTKVEIKRTVAAPSVFIFPPSDEQLKSGTASVVCLLNNFYPREAKVQWKVDNALQSGNSQESVTEQDSKDSTYSLSSTLTLSKADYEKHKVYACEVTHQGLSSPVTKSFNRGEC
notes: also called PD-1 x LAG-3 proof-of-concept BABP
For B2, the EC50 came out at 6.66 nM in assay [6], 7.91 nM in [7], 1.8 nM with LAG-3-Fc and 0.883 nM in assay [9]. For the same molecule, the Kd with Human PD-1 turned out to be 1.8 nM; in the assay with Human LAG-3-His it was 0.44 nM. Moreover, the “PD-1 cell based reporter assay EC50” value in [8] worked out at 7.62 nM. The “LAG-3 blockade reporter assay EC50” value in [3] is 4.6 nM.
